Our source for the Kd values is US20120301468A1, “ANTI-MN ANTIBODIES AND METHODS OF USING SAME” (BAYER HEALTHCARE LLC, priority 2005, published 2012).

The experiment deals with MN (Homo sapiens, UniProt Q16790). In words: Surface plasmon resonance (BIAcore) binding to MN protein. As to conditions: soluble MN, panning-derived full-length antibodies, read-out: Affinity (Kd). Set-up: The MN protein represents the entire extra-cellular domain of the protein with a C-terminal histag for purification; His tag (C); made in house; host or cells: HKB-11 (mammalian cell line). As to the method:
The binding interactions between MN protein and the antibodies of this invention were analyzed using surface plasmon resonance technology on a BIAcore 3000 instrument (BIAcore, Uppsala, Sweden). For the binding of full-length IgGs (1e4, 1aa1, and 3ee9), goat anti-human IgG Fc was covalently coupled to the CM5 biosensor chip at high density using a standard amine coupling kit (BIAcore, Uppsala, Sweden). A capture assay was then used to bind these IgG to the anti-human IgG Fc-immobilized surface, aiming for a 300 response unit BIAcore signal. […] After ligand binding, the flow rate was then increased to 25 μl/min and various concentrations of MN analyte (e.g., range of 50 nM to 1 nM) were flowed over the surface for 10 minutes such that the association phase could be monitored. […] The binding of Fabs to MN was similarly determined except that an anti-human-Fab IgG was immobilized onto the chip and used to capture the Fabs prior to the assessment of MN binding.
Binding interactions between HKB11-expressed human MN protein and human full-length anti-MN MAbs were analyzed using surface plasmon resonance technology on a BIAcore 3000 instrument (BIAcore, Uppsala, Sweden). […] After ligand binding, flow rate was increased to 25 ul/min and MN analyte (50 nM to 1 nM) was flowed over the surface for 10 min such that the association phase could be monitored. […]

B1: 3a4: anti-MN antibody; CDRs SEQ ID NOS: 60, 66, 73, 108, 110, and 112 (antibody, V domains shown)
VH: QVELVESGGGLVQPGGSLRLSCAASGFTFSDYSINWVRQAPGKGLEYVSNISYSGSSTYYADSVKGRFTISRDNSKNTLYLQMNSLRAEDTAVYYCARFKYSGGSDSWGQGTLVTVSS
VL: DIELTQPPSVSVAPGQTARISCSGDNLPDFYVHWYQQKPGQAPVLVISEDNKRPSGIPERFSGSNSGNTATLTISGTQAEDEADYYCSTYGYTYSYSVFGGGTKLTVL
For B1, the Kd – broadly, the concentration at which binding is half-saturated – is 1 nM.
